The subject of the data set is T1, Rob (Staphylococcus aureus FK300 (rsbU-repaired NCTC8325-4 derivative)), ORF:92c4d64d.
T1 sequence: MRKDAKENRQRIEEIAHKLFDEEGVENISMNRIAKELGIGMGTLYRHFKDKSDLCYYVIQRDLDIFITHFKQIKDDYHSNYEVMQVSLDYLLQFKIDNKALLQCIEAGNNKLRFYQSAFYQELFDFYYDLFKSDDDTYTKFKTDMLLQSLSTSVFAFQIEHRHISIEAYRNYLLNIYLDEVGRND
Description: EMSA. The settings on record: 10 mM HEPES pH 8.0, 60 mM KCl, 4 mM MgCl2, 0.1 mM EDTA, 0.1 mg/ml BSA, 0.25 mM DTT, 5% glycerol, 1 ug salmon sperm DNA and 1 ug poly(dI-dC) per 20 ul, room …. Background: A gel shift assay detects complexes by their altered migration in electrophoresis.

“ACAAATATTTCCGTTTAATTATAACAACAATCTATTGCAAATTAAAATACTATCAATTACCATATGGCTTACAACCTAACTAACGAAAGGTAGGTAAAGGAATTGCAA (double strand) [SHORT-1 (108 bp)]”: the binding entry is on record as “binds”.

On to “TTGCAATTCCTTTACCTACCTTTCGTTAGTTAGGTTGTAAGCCATATGGTAATTGATAGTATTTTAATTTGCAATAGATT (double strand) [SHORT-2]”, for which the binding entry is recorded as “no binding”.
